Results: IntAct's records for PubMed 19556541

B1: Polycystin-2 (Homo sapiens), Q13563-1 (parent)
chain: MVNSSRVQPQQPGDAKRPPAPRAPDPGRLMAGCAAVGASLAAPGGLCEQRGLEIEMQRIRQAAARDPPAGAAASPSPPLSSCSRQAWSRDNPGFEAEEEEEEVEGEEGGMVVEMDVEWRPGSRRSAASSAVSSVGARSRGLGGYHGAGHPSGRRRRREDQGPPCPSPVGGGDPLHRHLPLEGQPPRVAWAERLVRGLRGLWGTRLMEESSTNREKYLKSVLRELVTYLLFLIVLCILTYGMMSSNVYYYTRMMSQLFLDTPVSKTEKTNFKTLSSMEDFWKFTEGSLLDGLYWKMQPSNQTEADNRSFIFYENLLLGVPRIRQLRVRNGSCSIPQDLRDEIKECYDVYSVSSEDRAPFGPRNGTAWIYTSEKDLNGSSHWGIIATYSGAGYYLDLSRTREETAAQVASLKKNVWLDRGTRATFIDFSVYNANINLFCVVRLLVEFPATGGVIPSWQFQPLKLIRYVTTFDFFLAACEIIFCFFIFYYVVEEILEIRIHKLHYFRSFWNCLDVVIVVLSVVAIGINIYRTSNVEVLLQFLEDQNTFPNFEHLAYWQIQFNNIAAVTVFFVWIKLFKFINFNRTMSQLSTTMSRCAKDLFGFAIMFFIIFLAYAQLAYLVFGTQVDDFSTFQECIFTQFRIILGDINFAEIEEANRVLGPIYFTTFVFFMFFILLNMFLAIINDTYSEVKSDLAQQKAEMELSDLIRKGYHKALVKLKLKKNTVDDISESLRQGGGKLNFDELRQDLKGKGHTDAEIEAIFTKYDQDGDQELTEHEHQQMRDDLEKEREDLDLDHSSLPRPMSSRSFPRSLDDSEEDDDEDSGHSSRRRGSISSGVSYEEFQVLVRRVDRMEHSIGSIVSKIDAVIVKLEIMERAKLKRREVLGRLLDGVAEDERLGRDSEIHREQMERLVREELERWESDDAASQISHGLGTPVGLNGQPRPRSSRPSSSQSTEGMEGAGGNGSSNVHV

Variants of: B1
Settings: with pkd1_human PKD1, P98161
pkd1_human PKD1, P98161, sequence (P98161 whole entry, looked up): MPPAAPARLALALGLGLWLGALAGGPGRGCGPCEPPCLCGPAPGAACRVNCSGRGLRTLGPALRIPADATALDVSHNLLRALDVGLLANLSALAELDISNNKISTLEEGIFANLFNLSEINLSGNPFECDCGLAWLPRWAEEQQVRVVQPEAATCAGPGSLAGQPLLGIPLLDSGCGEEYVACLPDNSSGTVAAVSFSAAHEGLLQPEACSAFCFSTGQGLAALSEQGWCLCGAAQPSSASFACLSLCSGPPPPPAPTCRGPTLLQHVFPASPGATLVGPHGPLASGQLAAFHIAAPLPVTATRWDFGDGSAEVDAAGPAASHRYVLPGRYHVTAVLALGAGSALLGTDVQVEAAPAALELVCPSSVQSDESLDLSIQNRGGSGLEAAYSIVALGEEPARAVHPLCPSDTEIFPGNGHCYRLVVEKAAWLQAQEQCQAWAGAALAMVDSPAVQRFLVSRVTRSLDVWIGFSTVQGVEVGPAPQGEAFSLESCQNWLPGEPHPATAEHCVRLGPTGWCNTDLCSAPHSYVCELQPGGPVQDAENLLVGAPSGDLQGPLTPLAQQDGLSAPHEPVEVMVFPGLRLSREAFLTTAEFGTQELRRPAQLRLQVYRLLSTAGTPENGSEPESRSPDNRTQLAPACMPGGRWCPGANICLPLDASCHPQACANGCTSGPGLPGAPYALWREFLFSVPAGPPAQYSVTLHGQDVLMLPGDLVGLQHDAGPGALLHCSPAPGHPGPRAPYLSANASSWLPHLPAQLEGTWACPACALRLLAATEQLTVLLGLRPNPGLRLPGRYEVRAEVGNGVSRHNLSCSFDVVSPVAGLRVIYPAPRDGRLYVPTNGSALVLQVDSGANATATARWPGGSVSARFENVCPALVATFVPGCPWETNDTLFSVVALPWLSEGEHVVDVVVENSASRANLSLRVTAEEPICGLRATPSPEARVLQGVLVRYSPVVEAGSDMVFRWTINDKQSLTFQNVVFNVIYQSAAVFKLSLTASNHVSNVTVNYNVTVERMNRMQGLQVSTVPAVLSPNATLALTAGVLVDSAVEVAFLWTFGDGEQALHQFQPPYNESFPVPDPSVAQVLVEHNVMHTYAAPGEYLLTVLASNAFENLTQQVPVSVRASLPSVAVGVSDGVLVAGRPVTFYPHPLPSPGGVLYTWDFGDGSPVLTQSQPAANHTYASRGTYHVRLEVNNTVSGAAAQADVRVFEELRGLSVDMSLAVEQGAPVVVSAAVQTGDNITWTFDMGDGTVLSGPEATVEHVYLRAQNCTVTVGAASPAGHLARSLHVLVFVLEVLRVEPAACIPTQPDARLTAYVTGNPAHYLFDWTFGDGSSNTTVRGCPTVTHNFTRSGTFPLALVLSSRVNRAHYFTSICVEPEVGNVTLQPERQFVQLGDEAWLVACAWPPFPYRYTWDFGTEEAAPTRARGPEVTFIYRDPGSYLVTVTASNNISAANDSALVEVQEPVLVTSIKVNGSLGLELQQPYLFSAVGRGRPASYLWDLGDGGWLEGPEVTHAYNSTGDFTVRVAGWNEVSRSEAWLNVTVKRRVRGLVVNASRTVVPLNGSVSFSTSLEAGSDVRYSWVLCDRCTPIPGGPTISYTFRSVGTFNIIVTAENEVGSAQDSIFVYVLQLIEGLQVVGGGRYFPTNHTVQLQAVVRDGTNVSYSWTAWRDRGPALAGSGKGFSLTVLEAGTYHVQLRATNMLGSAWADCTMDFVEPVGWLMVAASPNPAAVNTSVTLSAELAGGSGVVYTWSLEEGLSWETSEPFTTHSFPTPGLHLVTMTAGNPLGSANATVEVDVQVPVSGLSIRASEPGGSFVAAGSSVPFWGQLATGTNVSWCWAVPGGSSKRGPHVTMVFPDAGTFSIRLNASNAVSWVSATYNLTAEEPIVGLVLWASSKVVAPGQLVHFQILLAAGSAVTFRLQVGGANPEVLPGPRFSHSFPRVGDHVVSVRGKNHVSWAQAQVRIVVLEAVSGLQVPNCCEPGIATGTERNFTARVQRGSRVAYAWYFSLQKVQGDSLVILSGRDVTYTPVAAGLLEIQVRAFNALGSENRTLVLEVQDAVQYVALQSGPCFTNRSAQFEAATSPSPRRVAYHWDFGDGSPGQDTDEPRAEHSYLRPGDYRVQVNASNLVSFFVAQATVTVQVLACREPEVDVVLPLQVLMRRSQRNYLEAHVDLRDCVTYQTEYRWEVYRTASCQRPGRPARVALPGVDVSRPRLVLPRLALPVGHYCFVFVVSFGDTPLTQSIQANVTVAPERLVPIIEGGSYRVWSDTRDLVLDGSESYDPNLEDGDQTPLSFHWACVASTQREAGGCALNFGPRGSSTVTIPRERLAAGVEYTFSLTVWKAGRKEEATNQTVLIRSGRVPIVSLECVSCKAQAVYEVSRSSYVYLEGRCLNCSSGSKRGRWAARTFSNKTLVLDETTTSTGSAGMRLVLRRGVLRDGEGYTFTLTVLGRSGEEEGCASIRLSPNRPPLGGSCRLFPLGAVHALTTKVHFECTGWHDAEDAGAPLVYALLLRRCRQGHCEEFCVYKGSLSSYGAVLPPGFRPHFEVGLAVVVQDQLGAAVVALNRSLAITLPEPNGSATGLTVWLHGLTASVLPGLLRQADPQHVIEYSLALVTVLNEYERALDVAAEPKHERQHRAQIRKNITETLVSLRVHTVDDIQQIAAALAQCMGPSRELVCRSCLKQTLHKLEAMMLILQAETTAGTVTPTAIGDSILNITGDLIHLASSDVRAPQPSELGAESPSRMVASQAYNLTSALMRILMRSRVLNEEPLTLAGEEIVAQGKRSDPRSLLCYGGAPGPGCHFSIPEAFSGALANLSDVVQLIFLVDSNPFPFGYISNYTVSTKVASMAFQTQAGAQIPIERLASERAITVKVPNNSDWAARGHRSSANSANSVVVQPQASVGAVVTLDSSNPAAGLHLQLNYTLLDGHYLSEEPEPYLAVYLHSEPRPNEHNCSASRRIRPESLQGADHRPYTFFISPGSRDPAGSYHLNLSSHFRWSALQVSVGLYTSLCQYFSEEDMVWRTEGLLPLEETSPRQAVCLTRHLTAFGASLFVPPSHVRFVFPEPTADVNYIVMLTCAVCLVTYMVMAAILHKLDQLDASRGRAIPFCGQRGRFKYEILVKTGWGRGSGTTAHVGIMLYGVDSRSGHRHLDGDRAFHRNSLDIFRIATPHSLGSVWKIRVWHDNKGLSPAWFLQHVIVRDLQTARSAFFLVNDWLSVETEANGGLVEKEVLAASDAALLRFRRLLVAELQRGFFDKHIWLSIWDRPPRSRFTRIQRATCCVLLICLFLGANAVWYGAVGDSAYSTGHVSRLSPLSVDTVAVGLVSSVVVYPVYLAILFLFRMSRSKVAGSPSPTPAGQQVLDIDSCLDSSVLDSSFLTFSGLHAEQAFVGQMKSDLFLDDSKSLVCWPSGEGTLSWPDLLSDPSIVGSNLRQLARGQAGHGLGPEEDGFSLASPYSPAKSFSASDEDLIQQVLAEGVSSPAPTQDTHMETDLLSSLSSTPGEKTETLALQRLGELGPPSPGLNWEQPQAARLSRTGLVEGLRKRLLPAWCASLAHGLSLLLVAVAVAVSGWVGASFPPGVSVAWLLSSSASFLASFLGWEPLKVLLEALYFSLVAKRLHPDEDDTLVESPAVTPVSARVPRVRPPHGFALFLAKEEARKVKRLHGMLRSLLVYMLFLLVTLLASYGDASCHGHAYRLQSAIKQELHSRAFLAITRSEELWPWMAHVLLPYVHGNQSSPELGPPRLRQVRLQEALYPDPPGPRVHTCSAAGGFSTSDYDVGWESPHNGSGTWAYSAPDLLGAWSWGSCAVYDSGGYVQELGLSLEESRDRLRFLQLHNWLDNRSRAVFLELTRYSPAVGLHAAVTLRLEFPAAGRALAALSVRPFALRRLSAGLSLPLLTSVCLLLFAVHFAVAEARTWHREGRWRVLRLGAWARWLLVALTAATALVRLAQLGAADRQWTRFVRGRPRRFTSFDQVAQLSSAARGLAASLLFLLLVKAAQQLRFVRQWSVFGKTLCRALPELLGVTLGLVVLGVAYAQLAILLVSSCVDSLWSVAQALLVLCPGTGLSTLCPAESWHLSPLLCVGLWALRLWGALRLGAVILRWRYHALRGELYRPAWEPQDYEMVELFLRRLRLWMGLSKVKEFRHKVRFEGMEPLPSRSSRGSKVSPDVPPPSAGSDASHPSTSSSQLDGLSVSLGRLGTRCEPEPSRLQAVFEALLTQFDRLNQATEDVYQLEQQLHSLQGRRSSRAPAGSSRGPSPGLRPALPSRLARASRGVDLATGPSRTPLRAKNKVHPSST
In the case of L842A;V846A;M849A;I860A;V863A;L867A, the “effect of a mutation on the interaction” value is reported as “disrupting interaction strength”.
